Source: article PMC7287080, “Distinct pre-initiation steps in human mitochondrial translation” (Nature Communications, 2020)

Molecular target: mitoribosomal protein uS12m (human (endogenous in HEK293T), UniProt O15235 30-138)
Assay: cryo-EM structure; recombinant mtIF2 (1 µM) preincubated with GDPNP (2.5 mM), added to the mtIF3-bound mtSSU eluate with fMet-tRNA (1 µM) and MT-CO2 mRNA (1 µM), 30 min at room temperature, buffer A (25 mM HEPES-KOH pH 7.5, 5.0 mM Mg(OAc)2, 100 mM KCl, 0.05% β-DDM)
Conditions: both partners purified

binding result: binds
B1: recombinant human mtIF2 (amino acids 38-727) (natural protein)
chain: SSAYPVWTAQLCAWPWPTDVLTGAALSQYRLLVTKKEEGPWKSQLSSTKSKKVVEVWIGMTIEELARAMEKNTDYVYEALLNTDIDIDSLEADSHLDEVWIKEVITKAGMKLKWSKLKQDKVRKNKDAVRRPQADPALLTPRSPVVTIMGHVDHGKTTLLDKFRKTQVAAVETGGITQHIGAFLVSLPSGEKITFLDTPGHAAFSAMRARGAQVTDIVVLVVAADDGVMKQTVESIQHAKDAQVPIILAVNKCDKAEADPEKVKKELLAYDVVCEDYGGDVQAVPVSALTGDNLMALAEATVALAEMLELKADPNGPVEGTVIESFTDKGRGLVTTAIIQRGTLRKGSVLVAGKCWAKVRLMFDENGKTIDEAYPSMPVGITGWRDLPSAGEEILEVESEPRAREVVDWRKYEQEQEKGQEDLKIIEEKRKEHKEAHQKAREKYGHLLWKKRSILRFLERKEQIPLKPKEKRERDSNVLSVIIKGDVDGSVEAILNIIDTYDASHECELELVHFGVGDVSANDVNLAETFDGVIYGFNVNAGNVIQQSAAKKGVKIKLHKIIYRLVEDLQEELSSRLPCAVEEHPVGEASILATFSVTEGKKKVPVAGCRVQKGQLEKQKKFKLTRNGHVIWKGSLTSLKHHKDDISIVKTGMDCGLSLDEDNMEFQVGDRIVCYEEKQIQAKTSWDPGF
notes: mitochondrial translation initiation factor 2 (mtIF2), human, mature form, amino acids 38-727, codon-optimised construct in pET-24b; also called mtIF2-GDPNP; source: E. coli Rosetta 2, purified (His-Select Ni2+ resin, Superdex 200)
